According to patent publication US20250002610A1 (Genmab, published 2025):
Positions count from the first letter of the chain named.

T1: human DR4 (Death Receptor 4), cell surface expressed on human tumor cell lines (human, UniProt O00220 24-468)
T1 construct: also called TNFRSF10A; TRAIL-R1
T1 sequence: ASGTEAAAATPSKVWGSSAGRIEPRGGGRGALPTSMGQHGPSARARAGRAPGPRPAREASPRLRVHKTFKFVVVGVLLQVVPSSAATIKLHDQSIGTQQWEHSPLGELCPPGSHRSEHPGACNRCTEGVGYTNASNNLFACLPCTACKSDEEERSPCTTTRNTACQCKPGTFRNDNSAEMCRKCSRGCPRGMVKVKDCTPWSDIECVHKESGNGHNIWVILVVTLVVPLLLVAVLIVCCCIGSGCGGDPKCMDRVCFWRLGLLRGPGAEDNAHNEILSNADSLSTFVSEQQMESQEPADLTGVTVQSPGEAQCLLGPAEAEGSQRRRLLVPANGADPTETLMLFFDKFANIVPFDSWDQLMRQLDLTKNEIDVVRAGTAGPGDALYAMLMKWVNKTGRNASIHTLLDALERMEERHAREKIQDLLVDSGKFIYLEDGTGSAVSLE

T2: cynomolgus monkey FAPα on Expi293F cells (cynomolgus monkey (Macaca fascicularis), UniProt Q12884 1-760 (human entry))
T2 sequence: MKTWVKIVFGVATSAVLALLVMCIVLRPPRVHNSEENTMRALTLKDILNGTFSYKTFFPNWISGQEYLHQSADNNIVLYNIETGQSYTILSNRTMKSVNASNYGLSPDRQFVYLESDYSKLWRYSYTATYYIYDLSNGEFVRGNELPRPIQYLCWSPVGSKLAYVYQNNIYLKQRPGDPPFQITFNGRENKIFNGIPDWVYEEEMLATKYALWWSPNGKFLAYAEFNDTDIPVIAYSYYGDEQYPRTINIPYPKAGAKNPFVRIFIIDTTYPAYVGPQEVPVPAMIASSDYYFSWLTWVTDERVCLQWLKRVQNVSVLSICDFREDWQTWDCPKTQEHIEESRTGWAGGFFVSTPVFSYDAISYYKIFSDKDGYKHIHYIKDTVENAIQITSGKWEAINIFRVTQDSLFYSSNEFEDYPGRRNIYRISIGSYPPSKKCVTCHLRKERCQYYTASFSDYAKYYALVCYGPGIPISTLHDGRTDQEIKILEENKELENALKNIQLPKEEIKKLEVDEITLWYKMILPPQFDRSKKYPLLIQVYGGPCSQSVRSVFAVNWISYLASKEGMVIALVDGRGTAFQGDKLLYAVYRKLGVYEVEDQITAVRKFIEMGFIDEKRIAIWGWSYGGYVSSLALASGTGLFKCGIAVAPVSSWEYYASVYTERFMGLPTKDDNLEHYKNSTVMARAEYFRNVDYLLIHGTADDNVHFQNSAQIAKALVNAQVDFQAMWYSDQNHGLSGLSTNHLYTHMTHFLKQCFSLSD

T3: mouse FAPα on Expi293F cells (mouse (Mus musculus), UniProt P97321 1-761)
T3 sequence: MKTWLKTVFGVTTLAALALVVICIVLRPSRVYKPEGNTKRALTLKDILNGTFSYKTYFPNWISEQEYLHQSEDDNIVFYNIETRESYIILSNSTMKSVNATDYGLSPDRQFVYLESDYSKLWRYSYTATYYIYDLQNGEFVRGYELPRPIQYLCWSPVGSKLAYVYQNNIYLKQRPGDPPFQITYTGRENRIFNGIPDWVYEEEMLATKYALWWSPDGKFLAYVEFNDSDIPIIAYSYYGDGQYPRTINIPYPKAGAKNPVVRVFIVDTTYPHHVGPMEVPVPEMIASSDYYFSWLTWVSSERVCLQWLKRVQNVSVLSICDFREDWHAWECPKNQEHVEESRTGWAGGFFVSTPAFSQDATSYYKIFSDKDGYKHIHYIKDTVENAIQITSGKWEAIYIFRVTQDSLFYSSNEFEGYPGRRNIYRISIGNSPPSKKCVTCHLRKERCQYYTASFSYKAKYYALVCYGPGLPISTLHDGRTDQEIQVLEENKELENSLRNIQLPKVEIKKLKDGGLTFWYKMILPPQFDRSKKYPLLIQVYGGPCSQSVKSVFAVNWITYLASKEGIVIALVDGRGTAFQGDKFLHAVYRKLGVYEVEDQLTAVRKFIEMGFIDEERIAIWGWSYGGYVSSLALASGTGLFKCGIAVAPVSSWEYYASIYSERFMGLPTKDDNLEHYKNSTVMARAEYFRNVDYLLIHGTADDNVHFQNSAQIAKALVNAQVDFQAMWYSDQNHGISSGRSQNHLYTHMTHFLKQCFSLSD

B1: IgG1-DR4-FERR (antibody, V domains shown)
VH: QVQLQESGPGLVKPSGTLSLTCAVSGGSISSYSWWSWIRQPPGKGLEWIGELYHSGSTNYNPSLKSRVTISVDKSKNQFSLKLRSVTAADTAVYYCVRGVATIDYWGQGTLVTVSS
VL: QSALTQPPSASGSPGQSVTISCTGTSSDVGGYNFVSWYQQDPGKAPKLLIYEVTKRPSGVPDRFSGSKSGNTASLTVSGLQAEDEADYYCSSYAGSNNVMFGGGTKLTVLG
notes: Bivalent monoclonal IgG1 lambda
B2: BisG1-FAPα-FEAL/b12-FEAR (bispecific antibody, human IgG1, kappa)
heavy 1: EVQLLESGGGLVQPGGSPRLSCEASGFTFSSYALSWVRQAPGKGLEWVSAISGSGGGRYYADSVKGRFTISRDNSKNTLFLQMNSLRAEDTAVYYCAKEGYSSSGTYWDHWGQGTLVTVSSASTKGPSVFPLAPSSKSTSGGTAALGCLVKDYFPEPVTVSWNSGALTSGVHTFPAVLQSSGLYSLSSVVTVPSSSLGTQTYICNVNHKPSNTKVDKRVEPKSCDKTHTCPPCPAPEFEGGPSVFLFPPKPKDTLMISRTPEVTCVVVAVSHEDPEVKFNWYVDGVEVHNAKTKPREEQYNSTYRVVSVLTVLHQDWLNGKEYKCKVSNKALPAPIEKTISKAKGQPREPQVYTLPPSREEMTKNQVSLTCLVKGFYPSDIAVEWESNGQPENNYKTTPPVLDSDGSFLLYSKLTVDKSRWQQGNVFSCSVMHEALHNHYTQKSLSLSPG
light 1: AIQMTQSPSSVSASVGDRVTITCRASQGVSSWLAWYQQKPGRAPKLLIYVASTLQSGVPSRFSGSGSGTDFTLTINSLQPEDFATYYCQQANSFPPTFGQGTRLEMKRTVAAPSVFIFPPSDEQLKSGTASVVCLLNNFYPREAKVQWKVDNALQSGNSQESVTEQDSKDSTYSLSSTLTLSKADYEKHKVYACEVTHQGLSSPVTKSFNRGEC
heavy 2: QVQLVQSGAEVKKPGASVKVSCQASGYRFSNFVIHWVRQAPGQRFEWMGWINPYNGNKEFSAKFQDRVTFTADTSANTAYMELRSLRSADTAVYYCARVGPYSWDDSPQDNYYMDVWGKGTTVIVSSASTKGPSVFPLAPSSKSTSGGTAALGCLVKDYFPEPVTVSWNSGALTSGVHTFPAVLQSSGLYSLSSVVTVPSSSLGTQTYICNVNHKPSNTKVDKRVEPKSCDKTHTCPPCPAPEFEGGPSVFLFPPKPKDTLMISRTPEVTCVVVAVSHEDPEVKFNWYVDGVEVHNAKTKPREEQYNSTYRVVSVLTVLHQDWLNGKEYKCKVSNKALPAPIEKTISKAKGQPREPQVYTLPPSREEMTKNQVSLTCLVKGFYPSDIAVEWESNGQPENNYKTTPPVLDSDGSFFLYSRLTVDKSRWQQGNVFSCSVMHEALHNHYTQKSLSLSPG
light 2: EIVLTQSPGTLSLSPGERATFSCRSSHSIRSRRVAWYQHKPGQAPRLVIHGVSNRASGISDRFSGSGSGTDFTLTITRVEPEDFALYYCQVYGASSYTFGQGTKLERKRTVAAPSVFIFPPSDEQLKSGTASVVCLLNNFYPREAKVQWKVDNALQSGNSQESVTEQDSKDSTYSLSSTLTLSKADYEKHKVYACEVTHQGLSSPVTKSFNRGEC
notes: Fab-arm exchange of IgG1-FAPα-FEAL and IgG1-b12-FEAR
B3: IgG1-FAPα-FERL (antibody)
heavy: B2 heavy 1 with G240R, A269D
light: B2 light 1
notes: Bivalent monoclonal IgG1 kappa
B4: BisG1-b12-FERL/DR4-FERR (bispecific antibody, human IgG1, kappa, lambda)
heavy 1: B2 heavy 2 with G246R, A275D, F415L, R419K
light 1: B2 light 2
heavy 2: QVQLQESGPGLVKPSGTLSLTCAVSGGSISSYSWWSWIRQPPGKGLEWIGELYHSGSTNYNPSLKSRVTISVDKSKNQFSLKLRSVTAADTAVYYCVRGVATIDYWGQGTLVTVSSASTKGPSVFPLAPSSKSTSGGTAALGCLVKDYFPEPVTVSWNSGALTSGVHTFPAVLQSSGLYSLSSVVTVPSSSLGTQTYICNVNHKPSNTKVDKRVEPKSCDKTHTCPPCPAPEFERGPSVFLFPPKPKDTLMISRTPEVTCVVVDVSHEDPEVKFNWYVDGVEVHNAKTKPREEQYNSTYRVVSVLTVLHQDWLNGKEYKCKVSNKALPAPIEKTISKAKGQPREPQVYTLPPSREEMTKNQVSLTCLVKGFYPSDIAVEWESNGQPENNYKTTPPVLDSDGSFFLYSRLTVDKSRWQQGNVFSCSVMHEALHNHYTQKSLSLSPG
light 2: QSALTQPPSASGSPGQSVTISCTGTSSDVGGYNFVSWYQQDPGKAPKLLIYEVTKRPSGVPDRFSGSKSGNTASLTVSGLQAEDEADYYCSSYAGSNNVMFGGGTKLTVLGQPKAAPSVTLFPPSSEELQANKATLVCLISDFYPGAVTVAWKADSSPVKAGVETTTPSKQSNNKYAASSYLSLTPEQWKSHRSYSCQVTHEGSTVEKTVAPTECS
notes: Fab-arm exchange of IgG1-b12-FERL and IgG1-DR4-FERR; also called bsIgG1-ctrl-FERLxDR4-FERR

How the values were obtained:
[1] = target: T1, human DR4 (Death Receptor 4), cell …; assay: flow cytometry, DLD-1 cells, average ± SEM
[2] = target: T2, cynomolgus monkey FAPα on Expi293F cells; assay: flow cytometry, Expi293F cells expressing cynomolgus monkey FAPα, n = 2
Experimental: (§1) Binding of BisG1-FAPα-FERL/DR4-FERR, BisG1-FAPα-FEAL/b12-FEAR and IgG1-FAPα-FERL to FAPα of species commonly used for nonclinical toxicology studies was assessed by flow cytometry using Expi293F cells transiently expressing FAPα from different animal species. IgG1-b12 was included as negative control.
(§2) Expi293F cells expressing recombinant FAPα from various species (human, cynomolgus monkey, dog, pig, rat or mouse) were seeded (20,000 cells/well) in 96-Well round bottom plates (Greiner Bio-one, Cat #650101). Antibody dilutions were prepared using FACS buffer, consisting of PBS (Capricorn Scientific, Cat #PBS-10XA, diluted to 1×PBS in distilled water)+1% BSA (Roche, Cat #10735086001)+0.02% Sodium Azide (Bio-World, Cat #41920044-3). Plates were centrifuged, supernatant was removed, and cells were resuspended in 100 μL of antibody dilutions (concentration range 30-0.00017 μg/mL with three-fold serial dilutions using FACS buffer) of BisG1-FAPα-FERL/DR4-FERR, BisG1-FAPα-FEAL/b12-FEAR, IgG1-FAPα-FERL and IgG1-b12 and incubated for 30 min at 4° C. […] After 30 min incubation at 4° C., cells were washed with FACS buffer and resuspended in FACS buffer supplemented with TO-PRO-3 Iodide viability marker (Invitrogen, Cat #T3605, diluted 1:4,000). Antibody binding to viable cells (gMFI of PE on TO-PRO-3 negative cells) was analyzed by flow cytometry on a FACS Celesta and FACS_Diva software (first two experiments) or iQue® 3 and FlowJo software (last experiment). gMFI was determined and visualized using GraphPad Prism. Binding curves were analyzed using nonlinear regression analysis. The concentration (pg/mL) at which 50% of the maximal effect was observed (EC₅₀) was derived from the fitted curves.

[3] = target: T3, mouse FAPα on Expi293F cells; assay: flow cytometry on Expi293F cells transiently expressing mouse FAPα, gMFI PE
Experimental: as §1, §2

Binder	EC50 [1] [µg/mL]	EC50 [2] [µg/mL]	binding result [3]	EC50 (read off the curve) [3] [µg/mL]
B1	0.26			
B2		0.16	binds	
B3		0.11		~0.1
B4	0.72			
